Measurements published in patent US20260258125A1.

Experiments:
[1] = target: human CEACAM5 on 293T cells (293T-huCEACAM5 cells) (human) (UniProt P06731); test: cell-based or functional assay; design: unit not given beside the values
[2] = target: membrane-bound endogenous human CEACAM5 and CEACAM6 on LS 174T cells; test: cell-based or functional assay; design: unit not given beside the values
[3] = target: human CEACAM6 on 293T cells (293T-huCEACAM6 cells) (human) (UniProt P40199); test: cell-based or functional assay; design: unit not given beside the values
human CEACAM6 on 293T cells (293T-huCEACAM6 cells) (human), sequence (P40199 35-320): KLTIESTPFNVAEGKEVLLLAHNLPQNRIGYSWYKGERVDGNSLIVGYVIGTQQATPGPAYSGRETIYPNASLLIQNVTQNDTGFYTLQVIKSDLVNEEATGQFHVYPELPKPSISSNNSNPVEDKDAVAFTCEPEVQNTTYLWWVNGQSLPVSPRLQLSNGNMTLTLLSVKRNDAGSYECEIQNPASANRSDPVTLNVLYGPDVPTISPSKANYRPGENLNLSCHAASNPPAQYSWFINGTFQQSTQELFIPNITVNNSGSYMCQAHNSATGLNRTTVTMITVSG

[4] = target: membrane-bound endogenous human CEACAM5 and CEACAM6 on BxPC3 cells; test: cell-based or functional assay; design: unit not given beside the values
[5] = target: membrane-bound endogenous human CEACAM5 and CEACAM6 on LS 174T cells; test: flow cytometry on LS 174T cells
[6] = target: membrane-bound endogenous human CEACAM5 and CEACAM6 on BxPC3 cells; test: flow cytometry on BxPC3 cells
[7] = target: membrane-bound endogenous human CEACAM5 and CEACAM6 on LS 174T cells; test: cell-based or functional assay
[8] = target: membrane-bound endogenous human CEACAM5 and CEACAM6 on BxPC3 cells; test: cell-based or functional assay
[9] = target: human CEACAM5 on 293T cells (293T-huCEACAM5 cells) (human) (UniProt P06731); test: cell-based or functional assay
[10] = target: antigen of the anti-CEACAM5/6 antibodies on HPAC cells; test: cell-based or functional assay
[11] = target: human CEACAM6 on 293T cells (293T-huCEACAM6 cells) (human) (UniProt P40199); test: cell-based or functional assay

human CEACAM5 on 293T cells (293T-huCEACAM5 cells) (human), sequence (P06731 35-685 limits assumed): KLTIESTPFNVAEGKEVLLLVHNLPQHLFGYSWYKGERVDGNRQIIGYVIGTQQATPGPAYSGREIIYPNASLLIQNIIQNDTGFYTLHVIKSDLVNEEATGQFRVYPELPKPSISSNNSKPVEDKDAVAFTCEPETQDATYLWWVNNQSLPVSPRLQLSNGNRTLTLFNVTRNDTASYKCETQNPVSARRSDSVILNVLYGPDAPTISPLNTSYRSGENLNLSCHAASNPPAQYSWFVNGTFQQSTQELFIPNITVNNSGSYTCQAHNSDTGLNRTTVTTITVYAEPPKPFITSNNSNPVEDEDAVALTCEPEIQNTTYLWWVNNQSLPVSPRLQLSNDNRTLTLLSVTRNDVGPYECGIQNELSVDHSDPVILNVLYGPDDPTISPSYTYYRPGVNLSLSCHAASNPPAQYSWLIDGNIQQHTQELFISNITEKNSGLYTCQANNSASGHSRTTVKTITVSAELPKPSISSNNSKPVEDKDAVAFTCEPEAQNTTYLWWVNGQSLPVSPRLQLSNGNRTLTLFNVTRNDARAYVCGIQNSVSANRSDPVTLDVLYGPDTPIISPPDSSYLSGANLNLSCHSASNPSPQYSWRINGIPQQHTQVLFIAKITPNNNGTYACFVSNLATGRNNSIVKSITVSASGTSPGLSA

| Substance | IC50 of in vitro cytotoxicity of the ADC (CellTiter-Glo, 6 days) [1] | IC50 of in vitro cytotoxicity of the ADC (CellTiter-Glo, 6 days) [2] | IC50 of in vitro cytotoxicity of the ADC (CellTiter-Glo, 6 days) [3] | IC50 of in vitro cytotoxicity of the ADC (CellTiter-Glo, 6 days) [4] | EC50 [5] [nM] | EC50 [6] [nM] | Internalization of pHAb-dye-labelled antibody, MFI (37° C.-4° C.)/DAR [7] | Internalization of pHAb-dye-labelled antibody, MFI (37° C.-4° C.)/DAR [8] | Internalization of pHAb-dye-labelled antibody, MFI (37° C.-4° C.)/DAR [9] | Internalization of pHAb-dye-labelled antibody, MFI (37° C.-4° C.)/DAR [10] | Internalization of pHAb-dye-labelled antibody, MFI (37° C.-4° C.)/DAR [11] |
| --- | --- | --- | --- | --- | --- | --- | --- | --- | --- | --- | --- |
| IgG-MMAE | 66 | 700 | 72 | 100 | – | – | – | – | – | – | – |
| PR303561 (Tusamitamab) (antibody) | – | – | – | – | 1.74 | 3.06 | 1320 | 8230 | – | – | – |
| non-relevant IgG isotype control (Crownbio, hIgG1) (antibody) | – | – | – | – | – | – | 468 | 0 | 888 | 3010 | 975 |
